Values of other authors in article PMC4464844.

Experiments:
Tyr9 [1] = molecular target: Tyr9 (UniProt position 9, KPKLHYFNARG)
Tyr9 [2] = molecular target: Tyr9 (UniProt position 9, KPKLHYFNGRG)
Tyr9 [3] = molecular target: Tyr9 (UniProt position 9, RPKLHYPNGRG)

Glutathione transferase A1-1 (hGSTA1-1) (Homo sapiens)
pKa (Tyr9 [1]): 8.1

Glutathione transferase A1-1 GIMFhelix mutant (Homo sapiens; A12G;L107I;L108M;V111F;residues 208-222 replaced by the GSTA4-4 sequence)
pKa (Tyr9 [2]): 7.3

Glutathione transferase A4-4 (hGSTA4-4) (Homo sapiens)
pKa (Tyr9 [3]): 6.7
